Drawing on patent publication US9850504B2, “Method for the enzymatic production of 3-buten-2-one” (Scientist of Fortune S.A., priority 2013, dated 2017), this text covers turnover number, kcat and Km for seven molecules.

Data set [1] concerns the target linalool dehydratase-isomerase from Castellaniella defragrans (formerly Alcaligenes defragrans), SEQ ID NO: 19 (Castellaniella defragrans, UniProt E1XUJ2). The data set is described as follows: 1,3-butadiene production from 3-buten-2-ol (GC/FID). The data set is classed as biochemical. The conditions noted are these: 0-80 mM 3-buten-2-ol, cell lysate with recombinant enzyme, 2 mM DTT, pH 7.5, 37° C, 1-22 hours. The source says:
The sequence of linalool dehydratase-isomerase inferred from the genome of Castellaniella defragrans (formerly Alcaligenes defragrans) was generated by oligonucleotide concatenation to fit the codon usage of E. coli. A stretch of 6 histidine codons was inserted after the methionine initiation codon to provide an affinity tag for purification. The gene thus synthesized was cloned in a pET25b(+) expression vector (the vector was constructed by GeneArt AG). Competent E. coli BL21(DE3) cells (Novagen) were transformed with this vector according to the heat shock procedure. As negative control, E. coli BL21(DE3) strain was transformed with empty vector. The transformed cells were grown with shaking (160 rpm) on ZYM-5052 auto-induction medium (Studier F W, Prot. Exp. Pur. 41 (2005), 207-234) for 6 hours at 37° C. and protein expression was continued at 18° C. overnight (approximately 12 hours). The cells were collected by centrifugation at 4° C., 10,000 rpm for 20 min and the pellets were frozen at −80° C.
The pellets from 100 ml of culture cells were thawed on ice and resuspended in 4 ml of 50 mM Tris-HCl pH 7.5. […] Protein concentration was determined using the Bradford method (Biorad). […]
0.25 ml of cell lysate containing recombinant linalool dehydratase-isomerase was added to 0.5 ml of reaction mixture. […] 1,3-butadiene production was analyzed by GC/FID procedure. […]

The target of data set [2] is 3-hydroxypropionyl-CoA dehydratase from Sulfolobus tokodaii, SEQ ID NO: 3 (Uniprot F9VNG3) (Sulfurisphaera tokodaii, UniProt F9VNG3). As to the kind of experiment: Kinetic parameters of the dehydration of 4-hydroxy-2-butanone to 3-buten-2-one. It is filed as biochemical. The conditions noted are these: 0-300 mM 4-hydroxy-2-butanone, 20 mM MgCl2, pH 7.5, 37° C. The method, then:
Each assay was started with the addition of a specific enzyme at a final concentration of 4 mg/ml. Control assays were performed in which either no enzyme was added, or no substrate was added. Test tubes were incubated for 23 hours with shaking at 37° C. Reaction products were extracted with an equal volume of ethyl acetate and then analyzed by HPLC. Commercial 3-buten-2-one (Sigma) was used as reference. […] The mobile phase consisted of 98:2 (v/v) H2O/Acetonitrile containing 8.4 mM sulfuric acid. Retention time of 3-buten-2-one under these conditions was 5.4 min.
Kinetic parameters of the reaction were determined for purified recombinant 3-hydroxypropionyl-CoA dehydratase from Sulfolobus tokodaii under the following conditions:
4 mg/ml 3-Hydroxypropionyl-CoA dehydratase S. tokodaii
Test tubes were incubated for 0, 20, 60, 120 and 180 min with shaking at 37° C. The formation of 3-buten-2-one was quantified using commercial 3-buten-2-one according to the procedure described in Example 4.

Data set [3] concerns the target T1, Secondary alcohol dehydrogenase from Rhodococcus ruber, SEQ ID NO: 12 (Uniprot Q8KLT9) (Rhodococcus ruber, UniProt Q8KLT9).
T1 sequence (Q8KLT9 1-346): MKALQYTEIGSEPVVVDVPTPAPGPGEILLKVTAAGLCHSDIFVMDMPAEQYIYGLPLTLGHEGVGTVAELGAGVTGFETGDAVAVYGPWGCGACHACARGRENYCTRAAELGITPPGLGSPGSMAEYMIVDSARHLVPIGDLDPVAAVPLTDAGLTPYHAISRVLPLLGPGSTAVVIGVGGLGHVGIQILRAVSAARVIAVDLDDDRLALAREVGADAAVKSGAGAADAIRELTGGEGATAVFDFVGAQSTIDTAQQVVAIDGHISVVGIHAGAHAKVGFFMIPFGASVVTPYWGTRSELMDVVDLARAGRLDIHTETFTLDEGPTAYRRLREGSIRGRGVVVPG
The data set is described as follows: Kinetic parameters of the reduction of 3-buten-2-one to 3-buten-2-ol. The following applies: 0-40 mM 3-buten-2-one, 40 mM NADPH, pH 7.5, 37° C. It is filed as biochemical. The method, then:
(§1) The assays were incubated for various time periods (0, 20, 40, 60 120 and 240 min) with shaking at 37° C. […] The reaction products were then extracted with an equal volume of ethyl acetate. 150 μl of the upper ethyl acetate phase was transferred into a clean vial for HPLC analysis. Commercial 3-buten-2-ol (Sigma) was used as reference. […] The mobile phase consisted of 98:2 (v/v) H2O/acetonitrile containing 8.4 mM sulfuric acid. Retention time of 3-buten-2-ol and 3-buten-2-one under these conditions was 3.9 and 5.4 min, respectively.
(§2) The studied enzymatic reaction was carried out under the following conditions at 37° C.:
1 mg/ml alcohol dehydrogenase from R. ruber.
(§3) Reaction volume was 200 μl.
(§4) The assays were incubated for 0, 10, 20, 40, 60 and 120 min with shaking at 37° C. The formation of 3-buten-2-ol was quantified according to the protocol described in Example 8.

Substrate in data set [4]: CC(=O)CC(=O)SCCNC(=O)CCNC(=O)[C@H](O)C(C)(C)COP(=O)(O)OP(=O)(O)OC[C@H]1O[C@@H](n2cnc3c(N)ncnc32)[C@H](O)[C@@H]1OP(=O)(O)O
The data set is described as follows: purified protein, by the assay type. The conditions noted are these: other: acetoacetyl-CoA variable (0-32 mM), NADPH 60 mM, pH 7.5, 37° C.

Substrate in data set [5]: C=CC(C)=O
The data set is described as follows: Enzyme-catalyzed reduction of 3-buten-2-one to 3-buten-2-ol, HPLC-based. It is filed as biochemical, Thermoanaerobium brockii. The conditions noted are these: other: 0-40 mM 3-buten-2-one, 40 mM NADPH, 0.1 mM ZnCl2, pH 7.5, 37° C. The method, then:
as §2
1 mg/ml alcohol dehydrogenase from Th. brockii
as §3, §1

Substrate in data set [6]: C=CC(C)=O
The data set is described as follows: Kinetic parameters of the reduction of 3-buten-2-one to 3-buten-2-ol. The data set is classed as biochemical, Lactobacillus kefiri. The conditions noted are these: other: 0-40 mM 3-buten-2-one, 40 mM NADPH, pH 7.5, 37° C. How it is done: as §1, §2
1 mg/ml alcohol dehydrogenase from L. kefiri.
as §3, §4

Sequence of 3-hydroxypropionyl-CoA dehydratase from Sulfolobus tokodaii, SEQ ID NO: 3 (Uniprot F9VNG3) (F9VNG3 1-257): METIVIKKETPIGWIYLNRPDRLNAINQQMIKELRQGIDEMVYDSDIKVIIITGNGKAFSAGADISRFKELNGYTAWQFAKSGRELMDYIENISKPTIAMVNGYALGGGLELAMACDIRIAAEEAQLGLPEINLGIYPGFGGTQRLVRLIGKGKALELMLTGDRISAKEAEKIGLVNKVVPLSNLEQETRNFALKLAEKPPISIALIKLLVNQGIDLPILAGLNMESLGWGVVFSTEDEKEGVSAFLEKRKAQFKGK
Sequence of linalool dehydratase-isomerase from Castellaniella defragrans (formerly Alcaligenes defragrans), SEQ ID NO: 19 (E1XUJ2 27-397): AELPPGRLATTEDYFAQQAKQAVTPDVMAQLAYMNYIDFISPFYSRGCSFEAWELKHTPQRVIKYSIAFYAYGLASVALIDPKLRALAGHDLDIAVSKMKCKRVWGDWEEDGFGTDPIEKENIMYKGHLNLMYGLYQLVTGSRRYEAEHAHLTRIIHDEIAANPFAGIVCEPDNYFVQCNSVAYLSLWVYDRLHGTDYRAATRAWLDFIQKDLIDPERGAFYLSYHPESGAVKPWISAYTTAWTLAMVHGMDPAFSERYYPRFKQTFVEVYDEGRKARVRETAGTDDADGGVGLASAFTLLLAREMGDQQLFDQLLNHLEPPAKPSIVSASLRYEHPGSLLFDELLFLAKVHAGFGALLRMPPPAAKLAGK

With `C=CC(C)O` (centres unmarked) [3-buten-2-ol], the turnover number result in data set [1] is on record as “about 10^−4 s^−1 substrate molecule per enzyme active site”. As to `CC(=O)CCO` [4-hydroxy-2-butanone], in data set [2], the catalytic constant (kcat) (as a rule, the maximal rate divided by the concentration of active sites) was 0.0075 s⁻¹. Regarding `C=CC(C)=O` [3-buten-2-one], in data set [3], the kcat entry was “at least 0.03 s^−1”.

B1: Short chain alcohol dehydrogenase-like protein from Hahella chejuensis, SEQ ID NO: 11 (Uniprot Q2SCE0) (Hahella chejuensis KCTC 2396) (protein)
chain: MNYFVTGGTGFIGRFLVPKLLKRGGTVYLLVREASLPKLDELRERWNASDEQVVGVVGDLAQPMLGVSEKDAAMLRGKVGHFFHLAAIYDMQASAESQEQANIEGTRNAVKLADSLKAACFHHVSSIAAAGLYRGIFREDMFEEAEKLDNPYLRTKHESEKVVREECQTPWRVYRPGMVVGHSKTGEIDKIDGPYYFFKLIQKLRSALPQWMPTVGLEGGRINIVPVDFVVDAMDHIAHAEGEDGKCFHLTDPDPYKVGEILNIFAEAGHAPKMAMRIDARMFGFIPPMIRQGIARLPPVQRMKNAVLNDLGIPDEVMSFINYPTRFDNRETERLLKGTAIAVPRLQDYSPAIWDYWERHLDPDLHKDRTLRGAVEGRVCVITGATSGIGLSAARKLAEAGAKVVIAARTLEKLQEVKKELEELGGEVYEYSVDLSDLEDCDRFVANVLKDLGHVDVLVNNAGRSIRRSIQHAFDRFHDFERTMQLNYFGSLRLIMGFAPSMLERRRGHIVNISSIGVLTNAPRFSAYVASKAALDAFSRCAAAEFSDKNVTFTTINMPLVRTPMISPTKIYDSVPTLTPEEAADLVAEAIIHRPKRIATRLGVFAQVLHSMAPKFSEIIMNTGFKMFPDSSAATGGKDGEKPKVSTEQVAFAAIMRGIHW
On to B1, for which, in data set [4], the Michaelis-Menten constant (Km) (commonly the concentration of substrate that gives half-maximal velocity) amounted to 5 mM and the catalytic constant (kcat) is 0.07 s⁻¹.

B2: Alcohol dehydrogenase from Thermoanaerobacter brockii (Thermoanaerobium brockii), SEQ ID NO: 13 (Uniprot P14941) (Thermoanaerobacter brockii) (protein)
chain: MKGFAMLSIGKVGWIEKEKPAPGPFDAIVRPLAVAPCTSDIHTVFEGAIGERHNMILGHEAVGEVVEVGSEVKDFKPGDRVVVPAITPDWRTSEVQRGYHQHSGGMLAGWKFSNVKDGVFGEFFHVNDADMNLAHLPKEIPLEAAVMIPDMMTTGFHGAELADIELGATVAVLGIGPVGLMAVAGAKLRGAGRIIAVGSRPVCVDAAKYYGATDIVNYKDGPIESQIMNLTEGKGVDAAIIAGGNADIMATAVKIVKPGGTIANVNYFGEGEVLPVPRLEWGCGMAHKTIKGGLCPGGRLRMERLIDLVFYKRVDPSKLVTHVFRGFDNIEKAFMLMKDKPKDLIKPVVILA
For B2, in data set [5], the Michaelis-Menten constant (Km) came out at 100 mM and the catalytic constant (kcat) is 0.5 s⁻¹.

B3: Short-chain dehydrogenase/reductase (Fatty alcohol forming acyl-CoA reductase) from Marinobacter aquaeolei VT8, SEQ ID NO: 7 (Uniprot A1U3L3) (Marinobacter … (protein)
chain: MNYFLTGGTGFIGRFLVEKLLARGGTVYVLVREQSQDKLERLRERWGADDKQVKAVIGDLTSKNLGIDAKTLKSLKGNIDHVFHLAAVYDMGADEEAQAATNIEGTRAAVQAAEAMGAKHFHHVSSIAAAGLFKGIFREDMFEEAEKLDHPYLRTKHESEKVVREECKVPFRIYRPGMVIGHSETGEMDKVDGPYYFFKMIQKIRHALPQWVPTIGIEGGRLNIVPVDFVVDALDHIAHLEGEDGNCFHLVDSDPYKVGEILNIFCEAGHAPRMGMRIDSRMFGFIPPFIRQSIKNLPPVKRITGALLDDMGIPPSVMSFINYPTRFDTRELERVLKGTDIEVPRLPSYAPVIWDYWERNLDPDLFKDRTLKGTVEGKVCVVTGATSGIGLATAEKLAEAGAILVIGARTKETLDEVAASLEAKGGNVHAYQCDFSDMDDCDRFVKTVLDNHGHVDVLVNNAGRSIRRSLALSFDRFHDFERTMQLNYFGSVRLIMGFAPAMLERRRGHVVNISSIGVLTNAPRFSAYVSSKSALDAFSRCAAAEWSDRNVTFTTINMPLVKTPMIAPTKIYDSVPTLTPDEAAQMVADAIVYRPKRIATRLGVFAQVLHALAPKMGEIIMNTGYRMFPDSPAAAGSKSGEKPKVSTEQVAFAAIMRGIYW
Take B3: in data set [4], the Michaelis-Menten constant (Km) was found to be 8 mM and the kcat turned out to be 0.1 s⁻¹.

B4: R-specific alcohol dehydrogenase from Lactobacillus kefiri, SEQ ID NO: 17 (Uniprot Q6WVP7) (Lentilactobacillus kefiri) (protein)
chain: MTDRLKGKVAIVTGGTLGIGLAIADKFVEEGAKVVITGRHADVGEKAAKSIGGTDVIRFVQHDASDEAGWTKLFDTTEEAFGPVTTVVNNAGIAVSKSVEDTTTEEWRKLLSVNLDGVFFGTRLGIQRMKNKGLGASIINMSSIEGFVGDPTLGAYNASKGAVRIMSKSAALDCALKDYDVRVNTVHPGYIKTPLVDDLEGAEEMMSQRTKTPMGHIGEPNDIAWICVYLASDESKFATGAEFVVDGGYTAQ
For the molecule B4, in data set [6], the Km stood at 19 mM and the kcat was 4 s⁻¹.
